This is an account of results in patent US20040248184A1 (published 2004).

Sequences and labels used below:
B1: rat Reg protein (Reg I) (ligand, UniProt P10758 22-165, looked up)
chain: QEAEEDLPSARITCPEGSNAYSSYCYYFMEDHLSWAEADLFCQNMNSGYLVSVLSQAEGNFLASLIKESGTTAANVWIGLHDPKNNRRWHWSSGSLFLYKSWDTGYPNNSNRGYCVSVTSNSGYKKWRDNSCDAQLSFVCKFKA
modifications: as tracer labelled with 125I using Bolton-Hunter reagent; used unlabelled as competitor
notes: mature; also called rat Reg I
B2: human REG protein (REG Iα) (ligand, UniProt P05451 23-166, looked up)
chain: QEAQTELPQARISCPEGTNAYRSYCYYFNEDRETWVDADLYCQNMNSGNLVSVLTQAEGAFVASLIKESGTDDFNVWIGLHDPKKNRRWHWSSGSLVSYKSWGIGAPSSVNPGYCVSLTSSTGFQKWKDVPCEDKFSFVCKFKN
notes: mature; also called human REG Iα; REG Ia
B3: rat Reg-binding protein comprising 364 amino acids (cDNA isolated in Example 5, expression vector pCI-167.1) (receptor)
chain: MTGYTMLRNGGVGNGGQTCMLRWSNRIRLTWLSFTLFIILVFFPLIAHYYLTTLDEADEAGKRIFGPRAGNELCEVKHVLDLCRIRESVSEELLQLEAKRQELNSEIAKLNLKIEACKKSIENAKQDLLQLKNVISQTEHSYKELMAQNQPKLSLPIRLLPEKDDAGLPPPKVTRGCRLHNCFDYSRCPLTSGFPVFVYDSDQFAFGSYLDPLVKQAFQATVRANVYVTENAAIACLYVVLVGEIQEPAVLQPADLEKQLHSLPHWRTDGHNHVIINLSRKSDTQNLLYNVSTGRAMVAQSTFYAAQYRAGFDLVVSPLVHAMSEPNFMEIPRVTIFSLGRGEEEQEKLGVWRGRPPPGWGAGP
notes: also called 1.6 kbp cDNA clone
B4: rat Reg receptor (rat Reg-binding protein, rat homologue of human EXTL3/EXTR1), 919 amino acids, with N-terminal HA tag (receptor)
chain: YPYDVPDYAMTGYTMLRNGGVGNGGQTCMLRWSNRIRLTWLSFTLFIILVFFPLIAHYYLTTLDEADEAGKRIFGPRAGNELCEVKHVLDLCRIRESVSEELLQLEAKRQELNSEIAKLNLKIEACKKSIENAKQDLLQLKNVISQTEHSYKELMAQNQPKLSLPIRLLPEKDDAGLPPPKVTRGCRLHNCFDYSRCPLTSGFPVFVYDSDQFAFGSYLDPLVKQAFQATVRANVYVTENAAIACLYVVLVGEIQEPAVLQPADLEKQLHSLPHWRTDGHNHVIINLSRKSDTQNLLYNVSTGRAMVAQSTFYAAQYRAGFDLVVSPLVHAMSEPNFMEIPPQVPVKRKYLFTFQGEKIESLRSSLQEARSFEEEMEGDPPADYDDRIIATLKAVQDSKLDQVLVEFTCKNQPKPSLPTEWALCGEREDRLELLKLSTFALIITPGDPSLLISSGCATRLFEALEVGAVPVVLGEQVQLPYHDMLQWNEAALVVPKPRVTEVHFLLRSLSDSDLLAMRRQGRFLWETYFSTADSIFNTVLAMIRTRIQIPAAPIREEVAAEIPHRSGKAAGTDPNMADNGDLDLGPVETEPPYASPKYLRNFTLTVTDCYRSWNSAPGPFHLFPHTPFDPVLPSEAKFLGSGTGFRPIGGGAGGSGKEFQAALGGNVQREQFTVVMLTYEREEVLMNSLERLNGLPYLNKVVVVWNSPKLPSEDLLWPDIGVPIMVVRTEKNSLNNRFLPWNEIETEAILSIDDDAHLRHDEIMFGFRVWREARDRIVGFPGRYHAWDIPHQSWLYNSNYSCELSMVLTGAAFFHKYYAYLYSYVMPQAIRDMVDEYINCEDIAMNFLVSHITRKPPIKVTSRWTFRCPGCPQALSHDDSHFHERHKCINFFVKVYGYMPLLYTQFRVDSVLFKTRLPHDKTKCFKFI
notes: also called rEXTL3; pCI•rEXTL3

The target of assay [1] is B4. Description: displacement of 125I rat Reg protein from CHO cells stably expressing the rat Reg receptor. The method, then: (§1) The rat Reg-binding protein (also called EXTL3/EXTR1) expression vector constructed in Example 8 or the control vector was introduced into COS-7 cells by electroporation and expressed transiently. CHO cells expressing the Reg receptor stably were isolated as described above. The cells (7.5×10⁵ cells) were washed with RPMI1640 (Roswell Park Memorial institute 1640 medium) and incubated on ice in the presence of ¹²⁵I labeled rat Reg protein (50 ng/ml, 1.5×10⁵ cpm/ml) with various concentrations of unlabeled rat Reg or human REG protein in RPMI1640 containing 1% fetal calf serum for 2 h. After washing with RPMI1640 three times, cells were solubilized by 1 ml of 100 mM Tris-HCl (pH 7.6), 1 mM EDTA and 1% Triton X-100. The radioactivity of the lysate was-determined by a γ-counter (Cobra, Packard). As a result, rat Reg binding protein expression vector-introduced-COS-7 cells bound to ¹²⁵I-labeled rat Reg protein and the binding was decreased by the addition of unlabeled Reg protein (FIG. 6).

Assay [2] concerns the target B4. Description: displacement of 125I rat Reg protein (competitor tracer) from CHO cells stably expressing the rat Reg receptor. How it is done: as §1
(In general: In a radioligand displacement assay an active substance lowers the binding of a labelled ligand.)

Assay [3] addresses B1. Description: binding of 10 nM [125I] rat Reg I to transiently transfected COS-7 cells on ice for 2 h, gamma counting, with (+) or without (-) 100-fold unlabelled rat Reg I. How it is done: Specifically, first, [¹²⁵I] rat Reg I stock solution (50 ng/μl=˜3.33 μM, 2.7×10⁵ cpm/μl) was diluted to 10 nM using DMEM. In addition, a diluted solution in which non-labeled Reg I stock solution (2250 ng/μl=150 μM) was added at 100-folds the concentration of [¹²⁵I] Reg I (1 μm), was prepared.
3 ml of 2.5×10⁵ cells/ml transfected COS cells were seeded onto 6 well plates and cultured at 37° C. for 2 days. After washing with ice-cold DMEM, 3 ml DMEM containing [¹²⁵I] rat Reg I was added (10 nM, final concentration). In a competitive inhibition experiment, 100-fold amount of non-labeled Reg I coexisted. After keeping on ice for 2 hours and then washing 3 times with DMEM, 1 ml/well of [100 mM Tris-HCl (pH 7.6), 1 mM EDTA, 1% Triton X-100] was added to lyze the cells, and [¹²⁵I] radioactivity was counted by using a γ-counter.

In assay [4] the target is B1. Description: radioligand binding of 125I rat Reg protein to CHO cells stably expressing the rat Reg receptor. How it is done:
as §1

In assay [5] the target is B2. Description: competition binding on CHO cells stably expressing the rat Reg receptor (line RegR-#3): unlabelled human REG is varied against 125I rat Reg protein (50 ng/ml), gamma counting. The method, then:
as §1

As to B1, the inhibition constant Ki (as a rule, the dissociation constant of the complex between target and ligand, obtained from inhibition or displacement) in assay [1] stood at 1.61 nM.

B2 displayed a Ki in assay [2] of 7.41 nM. For the molecule B3, the binding result in the assay with rat Reg protein (Reg I) [3] was “binds”. Consider B4, for which, in the assay with rat Reg protein (Reg I) [4], binding was characterised by a dissociation constant (Kd) of 4.41 nM. For the same molecule, the binding result in assay [5] is reported as “binds”.
